The target of this assay is FLAG GG 9-mer (SEQ ID NO:20).

Trypsin (type XI DPCC treated) (enzyme): the completeness of proteolytic cleavage (relative mobility on SDS gels) was determined as 100%.

The values are drawn from patent US5670616.
